In assay [1] the target is T1, recombinant mouse LRP6His chimera (mouse, UniProt O88572 20-1370).
T1 construct: extracellular domain; not shown: His tag
T1 sequence (looked up): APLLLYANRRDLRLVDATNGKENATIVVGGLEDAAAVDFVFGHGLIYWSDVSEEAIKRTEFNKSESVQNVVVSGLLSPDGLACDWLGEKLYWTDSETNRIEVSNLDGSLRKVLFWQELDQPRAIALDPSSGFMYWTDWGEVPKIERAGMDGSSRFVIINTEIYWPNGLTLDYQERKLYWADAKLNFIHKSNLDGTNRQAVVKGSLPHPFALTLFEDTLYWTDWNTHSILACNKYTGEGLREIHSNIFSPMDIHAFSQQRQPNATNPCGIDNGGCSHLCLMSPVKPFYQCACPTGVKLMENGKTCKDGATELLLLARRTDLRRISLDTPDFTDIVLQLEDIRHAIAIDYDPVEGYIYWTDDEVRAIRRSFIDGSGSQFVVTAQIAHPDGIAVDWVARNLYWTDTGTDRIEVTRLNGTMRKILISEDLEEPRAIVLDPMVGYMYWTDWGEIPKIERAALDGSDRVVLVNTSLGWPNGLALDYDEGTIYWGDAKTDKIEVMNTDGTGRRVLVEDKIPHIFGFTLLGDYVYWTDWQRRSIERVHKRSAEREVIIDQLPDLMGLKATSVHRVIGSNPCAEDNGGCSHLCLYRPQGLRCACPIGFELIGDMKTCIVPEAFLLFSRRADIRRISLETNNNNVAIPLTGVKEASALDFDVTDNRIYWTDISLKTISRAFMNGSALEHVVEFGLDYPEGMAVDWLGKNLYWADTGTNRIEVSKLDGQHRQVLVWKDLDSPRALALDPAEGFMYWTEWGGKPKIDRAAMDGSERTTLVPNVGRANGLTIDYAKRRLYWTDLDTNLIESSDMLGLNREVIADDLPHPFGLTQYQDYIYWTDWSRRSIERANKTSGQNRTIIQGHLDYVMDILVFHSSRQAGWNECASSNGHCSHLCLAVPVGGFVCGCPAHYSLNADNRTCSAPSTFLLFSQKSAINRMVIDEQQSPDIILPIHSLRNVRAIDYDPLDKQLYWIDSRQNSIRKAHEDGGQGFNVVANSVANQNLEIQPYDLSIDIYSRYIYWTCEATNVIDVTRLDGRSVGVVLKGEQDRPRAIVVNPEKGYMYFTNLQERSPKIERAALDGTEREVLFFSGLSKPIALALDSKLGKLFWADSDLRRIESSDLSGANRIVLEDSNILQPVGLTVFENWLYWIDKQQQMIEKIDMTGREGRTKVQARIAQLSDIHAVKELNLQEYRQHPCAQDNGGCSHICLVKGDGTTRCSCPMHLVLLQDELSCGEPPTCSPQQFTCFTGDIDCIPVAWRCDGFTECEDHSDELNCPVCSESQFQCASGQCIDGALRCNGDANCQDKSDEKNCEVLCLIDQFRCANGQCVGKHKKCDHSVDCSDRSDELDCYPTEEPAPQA
The assay is described as follows: single-point ELISA, IgG1 on coated antigen. The method, then: (§1) FIGS. 1a and 1b show LRP six antibodies. (A) The amino acid sequences of the complementarity determining regions (CDR) of the heavy (H) and the light (L) chains are presented. The antibodies were grouped into unique epitopes as determined by competitive ELISAs. (B) Single-point ELISAs were performed on 96-well Maxisorb immune plates coated with the […] of mouse LRP5, mouse LRP6 and human LRP6 chimeras. The plates were incubated with the purified Fab or IgG1 at the concentrations indicated followed by incubation with horseradish peroxidase (HRP)-conjugated anti-kappa antibody. The wells were washed eight times followed by incubation with 3,3′,5,5′-tetramethylbenzidine/H₂O₂ peroxidase (TMB) substrate for 5-10 min. The reaction was stopped by adding one M H₃PO₄ and the absorbance was measured spectrometrically at 450 nm in a microtiter plate reader.
(§2) The full length IgG1s were purified and a single-point ELISA was done to determine the specificity of the antibodies. […] A multipoint competitive ELISA was used to determine the relative affinities of the antibodies to the recombinant antigen.
In general terms: In an ELISA, binding on a coated surface is turned into a signal by an enzyme label.

The target in assay [2] is T2, recombinant mouse LRP5-His chimera (mouse, UniProt Q91VN0 31-1383).
T2 construct: extracellular domain; not shown: His tag
T2 sequence (looked up): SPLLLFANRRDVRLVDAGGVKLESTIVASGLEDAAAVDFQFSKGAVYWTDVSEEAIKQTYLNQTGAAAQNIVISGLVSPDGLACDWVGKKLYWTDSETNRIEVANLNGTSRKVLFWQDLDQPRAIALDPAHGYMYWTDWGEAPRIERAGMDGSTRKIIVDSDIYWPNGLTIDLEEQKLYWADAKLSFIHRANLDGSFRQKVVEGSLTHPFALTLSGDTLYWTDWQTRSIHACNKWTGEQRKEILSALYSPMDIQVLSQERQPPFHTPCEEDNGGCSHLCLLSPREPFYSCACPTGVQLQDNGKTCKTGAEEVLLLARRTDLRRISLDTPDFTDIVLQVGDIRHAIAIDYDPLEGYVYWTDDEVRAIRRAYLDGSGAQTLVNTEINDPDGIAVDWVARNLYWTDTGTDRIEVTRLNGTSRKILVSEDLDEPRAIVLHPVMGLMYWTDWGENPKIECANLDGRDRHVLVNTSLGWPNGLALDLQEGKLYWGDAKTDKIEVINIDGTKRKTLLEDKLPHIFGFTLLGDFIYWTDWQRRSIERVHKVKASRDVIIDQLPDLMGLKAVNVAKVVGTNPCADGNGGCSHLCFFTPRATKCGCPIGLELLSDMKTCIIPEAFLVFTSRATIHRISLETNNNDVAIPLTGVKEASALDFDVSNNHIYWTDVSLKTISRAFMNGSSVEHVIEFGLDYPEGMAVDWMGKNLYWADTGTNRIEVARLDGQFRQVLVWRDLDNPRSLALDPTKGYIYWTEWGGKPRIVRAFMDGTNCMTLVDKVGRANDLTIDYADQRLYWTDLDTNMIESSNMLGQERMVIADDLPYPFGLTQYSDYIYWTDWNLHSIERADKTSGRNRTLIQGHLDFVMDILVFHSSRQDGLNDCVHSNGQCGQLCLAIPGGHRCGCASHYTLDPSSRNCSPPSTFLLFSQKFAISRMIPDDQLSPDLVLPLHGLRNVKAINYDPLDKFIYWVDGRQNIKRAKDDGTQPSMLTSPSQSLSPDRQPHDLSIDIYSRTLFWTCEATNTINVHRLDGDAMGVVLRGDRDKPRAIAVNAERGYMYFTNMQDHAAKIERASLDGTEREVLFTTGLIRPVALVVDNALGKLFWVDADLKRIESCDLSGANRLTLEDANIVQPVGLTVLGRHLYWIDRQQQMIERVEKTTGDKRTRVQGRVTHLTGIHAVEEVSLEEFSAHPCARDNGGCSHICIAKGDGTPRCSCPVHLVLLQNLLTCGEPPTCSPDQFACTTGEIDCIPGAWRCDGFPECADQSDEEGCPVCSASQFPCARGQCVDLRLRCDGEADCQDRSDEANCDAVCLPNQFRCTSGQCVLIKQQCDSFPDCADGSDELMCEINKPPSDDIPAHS
The assay is described as follows: single-point ELISA, IgG1 on coated antigen. Here is the method: as §1, §2

B1: LRP6-E3 IgG1 antibody (antibody, V domains shown)
VH: EVQLVESGGGLVQPGGSLRLSCAASGFNLYYYSMHWVRQAPGKGLEWVASIYSSYGYTYYADSVKGRFTISADTSKNTAYLQMNSLRAEDTAVYYCARYAGYYYYPWAYYGWPFSGLDYWGQGTLVTVSS
VL: DIQMTQSPSSLSASVGDRVTITCRASQSVSSAVAWYQQKPGKAPKLLIYSASSLYSGVPSRFSGSRSGTDFTLTISSLQPEDFATYYCQQAGSAPYHLITFGQGTKVEIKR
notes: Tested as purified full length IgG1
For the molecule B1, the binding result in assay [1] and in assay [2] was “no binding” each time.

Values taken from US20220281969A1 (ANTLERA THERAPEUTICS, published 2022).
